From patent publication US20130336885A1 (Genentech, published 2013)

T1: gD epitope-tagged LgR5 22-123 (amino acids 22-123 of SEQ ID NO: 67) with a C-terminal GPI anchor on … (human, UniProt O75473 22-123, C-terminal GPI anchor)
T1 sequence: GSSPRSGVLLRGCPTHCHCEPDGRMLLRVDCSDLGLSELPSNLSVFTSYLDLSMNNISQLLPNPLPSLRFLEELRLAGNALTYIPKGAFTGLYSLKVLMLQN

T2: gD epitope-tagged human LgR5 (full-length) expressed on transfected 293 cells (human, UniProt O75473 22-907)
T2 construct: also called gD-tagged human LgR5
T2 sequence: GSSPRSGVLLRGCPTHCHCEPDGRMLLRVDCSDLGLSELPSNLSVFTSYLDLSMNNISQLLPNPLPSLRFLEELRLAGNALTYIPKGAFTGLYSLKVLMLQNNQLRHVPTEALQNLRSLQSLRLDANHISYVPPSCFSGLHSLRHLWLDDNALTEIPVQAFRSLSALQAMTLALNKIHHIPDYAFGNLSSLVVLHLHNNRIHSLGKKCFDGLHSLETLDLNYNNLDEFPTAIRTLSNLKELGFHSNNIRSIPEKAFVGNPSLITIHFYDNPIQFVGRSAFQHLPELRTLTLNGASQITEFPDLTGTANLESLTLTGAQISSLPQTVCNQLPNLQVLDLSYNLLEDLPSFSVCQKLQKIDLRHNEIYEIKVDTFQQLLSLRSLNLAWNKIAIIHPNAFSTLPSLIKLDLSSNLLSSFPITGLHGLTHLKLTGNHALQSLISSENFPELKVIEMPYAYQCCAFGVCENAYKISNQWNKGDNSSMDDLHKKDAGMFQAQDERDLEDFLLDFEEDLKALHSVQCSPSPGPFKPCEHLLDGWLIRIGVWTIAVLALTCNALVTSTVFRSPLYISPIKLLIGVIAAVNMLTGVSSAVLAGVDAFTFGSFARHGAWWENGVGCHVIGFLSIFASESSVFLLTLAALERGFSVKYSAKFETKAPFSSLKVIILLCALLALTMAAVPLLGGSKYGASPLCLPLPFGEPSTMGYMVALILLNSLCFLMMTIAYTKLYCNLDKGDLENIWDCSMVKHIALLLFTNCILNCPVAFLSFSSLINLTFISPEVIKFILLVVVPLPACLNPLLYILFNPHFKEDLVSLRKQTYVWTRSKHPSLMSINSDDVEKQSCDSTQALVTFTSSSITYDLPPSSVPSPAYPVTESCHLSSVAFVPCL

T3: gD epitope-tagged mouse LgR5 expressed on stably transfected 293 cells (mouse, UniProt Q9Z1P4 22-907)
T3 construct: also called gD-tagged mouse LgR5
T3 sequence: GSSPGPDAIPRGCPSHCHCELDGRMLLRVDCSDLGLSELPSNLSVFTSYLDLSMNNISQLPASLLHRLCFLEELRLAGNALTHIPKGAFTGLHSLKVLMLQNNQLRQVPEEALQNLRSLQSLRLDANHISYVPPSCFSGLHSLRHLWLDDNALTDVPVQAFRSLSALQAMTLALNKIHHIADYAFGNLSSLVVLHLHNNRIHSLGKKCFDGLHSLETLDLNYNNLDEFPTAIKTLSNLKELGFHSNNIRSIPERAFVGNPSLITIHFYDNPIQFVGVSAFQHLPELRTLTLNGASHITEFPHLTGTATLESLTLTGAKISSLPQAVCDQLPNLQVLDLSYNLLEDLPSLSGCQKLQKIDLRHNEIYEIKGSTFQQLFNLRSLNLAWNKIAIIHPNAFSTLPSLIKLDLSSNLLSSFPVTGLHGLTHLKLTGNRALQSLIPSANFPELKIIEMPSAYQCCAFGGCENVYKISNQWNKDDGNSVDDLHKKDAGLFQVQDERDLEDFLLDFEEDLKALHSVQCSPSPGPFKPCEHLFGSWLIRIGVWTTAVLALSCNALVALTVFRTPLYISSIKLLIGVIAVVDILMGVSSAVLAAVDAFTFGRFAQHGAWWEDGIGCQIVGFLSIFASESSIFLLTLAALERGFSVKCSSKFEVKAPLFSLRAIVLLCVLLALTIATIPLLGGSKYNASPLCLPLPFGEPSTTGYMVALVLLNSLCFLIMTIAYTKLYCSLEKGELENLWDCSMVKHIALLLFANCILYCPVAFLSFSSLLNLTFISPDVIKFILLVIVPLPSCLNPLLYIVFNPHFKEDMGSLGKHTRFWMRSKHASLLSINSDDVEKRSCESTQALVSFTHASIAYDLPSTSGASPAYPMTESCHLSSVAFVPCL


Legend:
[1] = target: T1, gD epitope-tagged LgR5 22-123 (amino …); assay: FACS on transiently transfected 293 cells
[2] = target: T2, gD epitope-tagged human LgR5 …; assay: Scatchard analysis, 125I-labelled antibody competed by unlabelled antibody on stably transfected 293 cells
Procedure: (§1) Scatchard analysis was performed following standard procedures (Holmes et al., Science 256:1205-1210 (1992)) to determine the relative binding affinities of YW353, ch8E11 and hu8E11v2 antibodies.
(§2) Anti-LgrS antibodies were [I¹²⁵] labeled using the indirect Iodogen method. […] Competition assay mixtures of 50 μL volume containing a fixed concentration of [I¹²⁵] labeled antibody and decreasing concentrations of serially diluted, unlabeled antibody were placed into 96-well plates. 293 cells stably expression human, rat, or mouse LgrS were cultured in growth media at 37° C. in 5% CO₂. Cells were detached from the flask using Sigma Cell Dissociation Solution and were washed with binding buffer, which consisted of Dulbecco's Modified Eagle Medium (DMEM) with 2% fetal bovine serum (FBS), 50 mM HEPES (pH 7.2) and 0.1% sodium azide. The washed cells were added to the 96 well plates at a density of 250,000 cells in 0.2 mL of binding buffer. The final concentration of the labeled antibody in each well was […]. The final concentration of the unlabeled antibody in the competition assay ranged from 500 nM through ten 2-fold diluation steps to a 0 nM buffer-only assay. Competition assays were carried out in triplicate. Competition assays were incubated for 2 hours at room temperature. After the 2-hour incubation, the competition assays were transferred to a Millipore Multiscreen filter plate (Billerica, Mass.) and washed 4 times with binding buffer to separate the free from bound [I¹²⁵] labeled antibody. The filters were counted on a Wallac Wizard 1470 gamma counter (PerkinElmer Life and Analytical Sciences Inc.; Wellesley, Mass.). The binding data was evaluated using NewLigand software (Genentech), which uses the fitting algorithm of Munson and Robard to determine the binding affinity of the antibody (Munson and Robard 1980)

[3] = target: T3, gD epitope-tagged mouse LgR5 expressed …; assay: as above
Procedure: as §1, §2

[4] = target: T3, gD epitope-tagged mouse LgR5 expressed …; assay: Scatchard analysis, competition of 125I-labeled with unlabeled antibody on 293 cells stably expressing mouse LgR5
Procedure: as §1
as §2, with “The final concentration of the unlabeled antibody in the competition assay ranged from 500 nM through ten 2-fold diluation steps to a 0 nM buffer-only assay. Competition assays were carried out in triplicate. Competition assays were incubated for 2 hours at room temperature. After the 2-hour incubation, the competition assays were transferred to a Millipore Multiscreen filter plate (Billerica, Mass.) and washed 4 times with binding buffer to separate the free from bound [I¹²⁵] labeled antibody.” left out

Row | Binder | binding result [1] | Kd [2] [pM] | Kd [3] [pM] | Kd [4] [pM]
1 | chimeric monoclonal antibody 8E11 (antibody, human IgG1, V domains shown, also called ch8E11; chimeric 8E11) VH: QVQLQQSGTELMKPGASVKISCKATGYTFSAYWIEWIKQRPGHGLEWIGEILPGSDSTDYNEKFKVKATFSSDTSSNTVYIQLNSLTYEDSAVYYCARGGHYGSLDYWGQGTTLKVSS VL: NIVLTQSPASLAVSLGQRATISCRASESVDNYGNSFMHWYQQKPGQPPKLLIYLASNLESGVPARFSGSGSRTDFTLTIDPVEADDAATYYCQQNYEDPFTFGSGTKVEIKR | no binding (tested: 10 µg/ml) | 400 | 200 | –
2 | humanized monoclonal antibody 8E11.v2 (antibody, human IgG1, kappa, V domains shown, It was assessed as an IgG; also called hu8E11.v2; hu8E11v2) VH: EVQLVQSGAEVKKPGASVKVSCKASGYTFSAYWIEWVRQAPGQGLEWIGEILPGSDSTDYNEKFKVRATFTSDTSTSTVYLELSSLRSEDTAVYYCARGGHYGSLDYWGQGTLVTVSS VL: DIVMTQSPDSLAVSLGERATINCRASESVDNYGNSFMHWYQQKPGQPPKLLIYLASNLESGVPDRFSGSGSGTDFTLTISSLQAEDVAVYYCQQNYEDPFTFGQGTKVEIKR | no binding (tested: 10 µg/ml) | – | 500 | 600
3 | human antibody YW353 (antibody, human IgG1, kappa, V domains shown, also called huYW353) VH: EVQLVESGGGLVQPGGSLRLSCAASGFTFTSYSISWVRQAPGKGLEWVAEIYPPGGYTDYADSVKGRFTISADTSKNTAYLQMNSLRAEDTAVYYCAKARLFFDYWGQGTLVTVSS VL: DIQMTQSPSSLSASVGDRVTITCRASQDVSTAVAWYQQKPGKAPKLLIYSASFLYSGVPSRFSGSGSGTDFTLTISSLQPEDFATYYCQQSYTTPPTFGQGTKVEIKR | – | 200 | – | –
